{"source": "patent US12662676B2", "about": "“Aptamer nucleic acid molecule, and complex and application thereof” (EAST CHINA UNIVERSITY OF SCIENCE AND TECHNOLOGY, priority 2019, dated 2026)", "molecules": {"B1": {"name": "F30-Pepper-1: RNA aptamer, Pepper-1 in F30 scaffold RNA, SEQ ID NO: 2 (nucleic acid)", "chain": "UUGCCAUGUGUAUGUGGGUUCGCCCACAUACUCUGAUGAUCCCCAAUCGUGGCGUGUCGGCCUGCUUCGGCAGGCACUGGCGCCGGGAUCAUUCAUGGCAA", "modifications": "RNA, backbone not given here"}, "B2": {"name": "F30-Broccoli: reported monomeric Broccoli aptamer in F30 scaffold, SEQ ID NO: 4, control (nucleic acid)", "chain": "UUGCCAUGUGUAUGUGGGUUCGCCCACAUACUCUGAUGAUCCAGACGGUCGGGUCCAGAUAUUCGUAUCUGUCGAGUAGAGUGUGGGCUGGAUCAUUCAUGGCAA", "modifications": "listed as RNA, further chemistry not given here"}, "B3": {"name": "TagBFP-4Pepper: TagBFP mRNA fused with 4Pepper-7, SEQ ID No: 27 (nucleic acid)", "chain": "AUGAGCGAGCUGAUUAAGGAGAACAUGCACAUGAAGCUGUACAUGGAGGGCACCGUGGACAACCAUCACUUCAAGUGCACAUCCGAGGGCGAAGGCAAGCCCUACGAGGGCACCCAGACCAUGAGAAUCAAGGUGGUCGAGGGCGGCCCUCUCCCCUUCGCCUUCGACAUCCUGGCUACUAGCUUCCUCUACGGCAGCAAGACCUUCAUCAACCACACCCAGGGCAUCCCCGACUUCUUCAAGCAGUCCUUCCCUGAGGGCUUCACAUGGGAGAGAGUCACCACAUACGAAGACGGGGGCGUGCUGACCGCUACCCAGGACACCAGCCUCCAGGACGGCUGCCUCAUCUACAACGUCAAGAUCAGAGGGGUGAACUUCACAUCCAACGGCCCUGUGAUGCAGAAGAAAACACUCGGCUGGGAGGCCUUCACCGAGACGCUGUACCCCGCUGACGGCGGCCUGGAAGGCAGAAACGACAUGGCCCUGAAGCUCGUGGGCGGGAGCCAUCUGAUCGCAAACAUCAAGACCACAUAUAGAUCCAAGAAACCCGCUAAGAACCUCAAGAUGCCUGGCGUCUACUAUGUGGACUACAGACUGGAAAGAAUCAAGGAGGCCAACAACGAGACCUACGUCGAGCAGCACGAGGUGGCAGUGGCCAGAUACUGCGACCUCCCUAGCAAACUGGGGCACAAGCUCAAUUAACACUCGCUAGAGCAUGGUUGGUACCGUAGUCAAGCUUCCCACGGAGGAUCCCCAAUCGUGGCGUGUCGGCCUCUCCCAAUCGUGGCGUGUCGGCCUCUCCCAAUCGUGGCGUGUCGGCCUCUCCCAAUCGUGGCGUGUCGGCCUCUCUUCGGAGAGGCACUGGCGCCGGAGAGGCACUGGCGCCGGAGAGGCACUGGCGCCGGAGAGGCACUGGCGCCGGGAUCCUCCGUGGG"}, "B4": {"name": "mCherry-4Pepper: mCherry mRNA fused with 4Pepper-7, SEQ ID No: 26 (nucleic acid)", "chain": "AUGGUGAGCAAGGGCGAGGAGGAUAACAUGGCCAUCAUCAAGGAGUUCAUGCGCUUCAAGGUGCACAUGGAGGGCUCCGUGAACGGCCACGAGUUCGAGAUCGAGGGCGAGGGCGAGGGCCGCCCCUACGAGGGCACCCAGACCGCCAAGCUGAAGGUGACCAAGGGUGGCCCCCUGCCCUUCGCCUGGGACAUCCUGUCCCCUCAGUUCAUGUACGGCUCCAAGGCCUACGUGAAGCACCCCGCCGACAUCCCCGACUACUUGAAGCUGUCCUUCCCCGAGGGCUUCAAGUGGGAGCGCGUGAUGAACUUCGAGGACGGCGGCGUGGUGACCGUGACCCAGGACUCCUCCCUGCAGGACGGCGAGUUCAUCUACAAGGUGAAGCUGCGCGGCACCAACUUCCCCUCCGACGGCCCCGUAAUGCAGAAGAAGACCAUGGGCUGGGAGGCCUCCUCCGAGCGGAUGUACCCCGAGGACGGCGCCCUGAAGGGCGAGAUCAAGCAGAGGCUGAAGCUGAAGGACGGCGGCCACUACGACGCUGAGGUCAAGACCACCUACAAGGCCAAGAAGCCCGUGCAGCUGCCCGGCGCCUACAACGUCAACAUCAAGUUGGACAUCACCUCCCACAACGAGGACUACACCAUCGUGGAACAGUACGAACGCGCCGAGGGCCGCCACUCCACCGGCGGCAUGGACGAGCUGUACAAGUAACUCGCUAGAGCAUGGUUAAGCUUCCCACGGAGGAUCCCCAAUCGUGGCGUGUCGGCCUCUCCCAAUCGUGGCGUGUCGGCCUCUCCCAAUCGUGGCGUGUCGGCCUCUCCCAAUCGUGGCGUGUCGGCCUCUCUUCGGAGAGGCACUGGCGCCGGAGAGGCACUGGCGCCGGAGAGGCACUGGCGCCGGAGAGGCACUGGCGCCGGGAUCCUCCGUGGG"}}, "key": {"[1]": {"test_system": "BL21(DE3, Star) E. coli strain expressing F30-Pepper-1", "assay": "Labeling of bacterial RNA", "type": "cell-based", "details": "2 μM III-3 in PBS, 4 hours after IPTG induction", "excerpt": "In order to test the effect of Pepper-III-3 in bacteria, a bacterial expression plasmid expressing F30-Pepper-1 was constructed. Primers were used to amplify F30-Pepper-1 in Example 2. Primers were used to amplify pET28a to remove the promoter and multiple cloning site regions. The obtained F30-Pepper-1 fragment and the linearized pET28a were ligated according to the commonly used experimental method (4). The obtained recombinant plasmid was named pET28a-T7-F30-Pepper-1.\nThe recombinant plasmid pET28a-T7-F30-Pepper-1was transformed into BL21(DE3, Star) E. coli strain. A single clone was picked and cultured at 37° C. to an OD600 around 0.2 before addition of 1 mM IPTG to induce the expression of F30-Pepper-1. 4 hours after induction, the bacteria were harvested and resuspended in PBS solution containing 2 μM III-3. BL21 (DE3, Star) E. coli transformed with pET28a empty vector was used as the control."}, "[2]": {"test_system": "BY4741 strain expressing F30-Pepper-1", "assay": "Labeling of yeast RNA", "type": "cell-based", "details": "2 μM III-3 in PBS, 10 hours after galactose induction", "excerpt": "In order to test the effect of Pepper-III-3 in yeast, a yeast expression plasmid expressing F30-Pepper-1 was constructed. The F30-Pepper-1 DNA fragment in Example 2 was amplified using primers, and the amplified F30-Pepper-1 fragment was inserted into the pYES2.1TOPO TA vector according to the commonly used experimental method (4). The obtained recombinant plasmid was named pYES2.1-F30-Pepper-1.\nThe recombinant plasmid pYES2.1-F30-Pepper-1 was transformed into BY4741 strain, and a single clone was picked and cultured at 30° C. to an OD600=0.1 before addition of 1 mM galactose to induce the expression of F30-Pepper-1. 10 hours after induction, the yeast cells were harvested and resuspended in PBS containing 2 μM III-3. The untreated BY4741 strain was used as the control."}, "[3]": {"assay": "Fluorescence activation of III-3 fluorophore by Pepper aptamers and mutants", "type": "biochemical", "details": "1 μM III-3 with 5 μM RNA", "experimental": "Preparation of Pepper or Pepper mutant aptamer according to the commonly used experimental method (1). 5 μM aptamer and 1 μM fluorophore were incubated in the detection buffer (40 mM HEPES, pH 7.4, 125 mM KCl, 5 mM MgCl2, 5% DMSO). The maximal excitation and emission peaks of the aptamer-fluorophore complexes were determined using a Synergy Neo2 multifunctional microplate reader. The fluorescence intensities of the aptamer-fluorophore complexes at the maximal excitation and emission peaks were determined using a Synergy Neo2 multifunctional microplate reader. The control sample (1 μM fluorophore without aptamer) was also measured under the same conditions. Then the ratios of fluorescence intensity were calculated. For example, the fluorescence maximal excitation and emission peaks of the complex of 5 μM F30-Pepper-2 and 1 μM III-3 fluorophore are 485 nm and 530 nm, respectively. The fluorescence intensity of the complex at 485±10 nm excitation and 530 nm±10 nm emission was 36,000, the fluorescence intensity of the control sample (1 μM III-3 fluorophore only) under the same detection conditions was 10. Thus, the activation ratio of F30-Pepper-2 aptamer on III-3 fluorophore was 3,600-fold.\nIn order to detect the fluorescence activation of III-3 fluorophore by different Pepper mutant, the Pepper-1 sequence in F30-Pepper-1 was mutated according to Table 1. […] 1 μM III-3 was incubated with […] RNA and their fluorescence activation folds were determined according to the commonly used experimental method (5). […] In summary, many Pepper mutants containing single and multiple mutants still retain the ability to activate the fluorescence of III-3 fluorophore.\nIn order to detect the activation of III-3 by modified Pepper, base-modified Pepper-3 was synthesized (SEQ ID NO: 6, the underlined nucleotides in […] GGCC contain deoxyribonucleotide bases) and Pepper-4 (SEQ ID NO: 7, the underlined nucleotides in […] GGGCC contain 2′-F modification) (synthesized by Shanghai GenePharma Co., Ltd), which contain deoxyribonucleotides replacement (shaded bases in FIG. 5A) or 2′-F modification (shaded bases in FIG. 5B) in the stem-loop region of Pepper. Detection of the fluorescence activation of III-3 fluorophore by these modified Peppers was carried out according to the commonly used experimental method (5)."}, "[4]": {"assay": "Binding constant of Pepper and III-3", "details": "2 nM F30-Pepper-1 with different concentrations of III-3", "experimental": "In order to detect the binding constant of Pepper and III-3, 2 nM F30-Pepper-1 was incubated with different concentrations of III-3 and their fluorescence was determined."}, "[5]": {"assay": "Native PAGE oligomerization identification", "details": "F30-Broccoli and F30-2dBroccoli as controls", "excerpt": "In order to detect whether Pepper binds to III-3 in the form of monomer or polymer, F30-Pepper-1 was identified by the Native PAGE using the monomeric F30-Broccoli (SEQ ID NO: 4) and F30-2dBroccoli (SEQ ID NO: 5) (Filonov et al. Journal of the American Chemical Society 2014. 136: 16299-16308; Filonov et al. Chemistry & biology 2015. 22: 649-660) as the controls. The fluorescence imaging result was compared with the staining result by SYBR Gold (universal nucleic acid dye that was purchased from Invitrogen)."}, "[6]": {"assay": "Thermostability of Pepper (fluorescence after 5 minutes at different temperatures)", "type": "physicochemical", "details": "1 μM aptamer with 10 μM fluorophore (III-3 for F30-Pepper-1, DFHBI-1T for F30-Broccoli), 5 minutes at each temperature", "experimental": "In order to test the thermostability of Pepper, 10 μM III-3 was incubated with 1 μM F30-Pepper-1, and then was placed at different temperatures for 5 minutes before the fluorescence was determined. 10 μM DFHBI-1T was incubated with 1 μM F30-Broccoli to be as the control."}, "[7]": {"assay": "RNA extraction and purification with Mal-III-3 beads, in-gel fluorescence", "details": "gel incubated with 5 μM III-3 for 30 min", "experimental": "In order to use Pepper for RNA extraction and purification, the pCDNA3.1 hygro(+)-TagBFP-4Pepper-7 and pCDNA3.1 hygro(+)-mCherry-4Pepper-7 plasmids in Example 12 were transfected into COS-7 cells, respectively. 24 hours after transfection, the cells were collected and the total RNA of the cells was extracted using the Easyp Super Total RNA Extraction Kit (Promega). The extracted total RNA was dissolved in buffer containing 40 mM HEPES, pH 7.4, 125 mM KCl, 5 mM MgCl2. The RNA was incubated at 70° C. for 10 min and placed at room temperature for more than 30 min.\n500 μL activated Thiol Sepharose 4B (GE Healthcare) was washed twice with 500 μL PBS, and then was incubated with PBS containing 10 mM TCEP (Sigma) for 1 h at room temperature. After washing twice with 500 μL PBS, maleamide conjugated III-3 fluorophore (Mal-III-3) was added to react for 30 min at room temperature, and was washed three times with 500 μL PBS. The treated total RNA was incubated with the treated beads at room temperature. After 30 minutes, the mixture was centrifuged at 4000 rpm for 2 minutes, and the supernatant was discarded. […]\nThe recovered RNA was validated by electrophoresis. The gel was incubated with buffer containing 5 μM III-3 in 40 mM HEPES, pH 7.4, 125 mM KCl, and 5 mM MgCl2 for 30 min, and the fluorescence of 4Pepper-III-3 in the gel was detected."}}, "data": [{"molecule": "CN(CCO)c1ccc(/C=C(\\C#N)c2ccc(C#N)cc2)cc1", "note": "[III-3]", "values": [{"measurement": "fluorescent labeling of RNA in bacteria", "setting": "[1]", "result": "bright yellow-green fluorescence only when F30-Pepper-1 was expressed and in the presence of III-3"}, {"measurement": "RNA labeling in yeast cells", "setting": "[2]", "result": "bright yellow-green fluorescence only when F30-Pepper-1 was expressed and in the presence of III-3"}]}, {"molecule": "B1", "values": [{"measurement": "Activation folds", "setting": "[3]; Activation of III-3 by Pepper mutants with multiple mutations", "result": 3600, "unit": "folds"}, {"measurement": "Activation folds", "setting": "[3]; Activation of III-3 by Pepper mutants with single mutation", "result": 3600, "unit": "folds"}, {"measurement": "Kd", "setting": "[4]", "result": 3.5, "unit": "nM"}, {"measurement": "form in which aptamer binds III-3 (monomer or polymer)", "setting": "[5]", "result": "monomer"}, {"measurement": "Tm", "setting": "[6]", "result": 55, "unit": "°C"}]}, {"molecule": "B2", "values": [{"measurement": "Tm", "setting": "[6]", "result": 48, "unit": "°C"}]}, {"molecule": "B3", "values": [{"measurement": "in-gel fluorescence of recovered RNA", "setting": "[7]", "result": "bright Pepper-III-3 fluorescence signals"}]}, {"molecule": "B4", "values": [{"measurement": "in-gel fluorescence of recovered RNA", "setting": "[7]", "result": "bright Pepper-III-3 fluorescence signals"}]}]}
